We go through three molecules from PMC3073974, “A Model of a MAPK•Substrate Complex in an Active Conformation: A Computational and Experimental Approach” (PLoS ONE, 2011).

Residues, ends and D or L forms follow the SMILES beside them.

In data set [1] the target is T1, ERK2 (Rattus norvegicus, UniProt P63086).
T1 construct: made in house
The experiment in a line: Steady-state kinetics: inhibition of Ets phosphorylation by ERK2. Conditions: 1 mM MgATP. The data set is classed as biochemical. The procedure:
Activated tagless ERK2 was generated essentially as described in (Kaoud, T.S. et al. manuscript in preparation). Expression and purification of Ets-1 (1-138) was followed by the method described in the previously published literature.
(§1) zReactions were carried out at 27°C in kinase assay buffer (25 mM HEPES pH 7.4, 100 mM KCl, 2 mM DTT, 40 µg/mL BSA, and 20 mM MgCl2) containing 2 nM ERK2 and varied concentrations of substrates and inhibitors. Rates were measured under conditions where total product formation represented less than 10% of the initial substrate concentrations. The reaction was incubated for 10 min before initiation by addition of enzyme and quantified as described previously. Initial rates were determined by linear least squares fitting to plots of product against time. Reciprocal plots of 1/v against 1/s were checked for linearity, before the data were fitted to eqn. 1 using a non-linear least squares approach, assuming equal variance for velocities, using the program Kaleidagraph 3.5 (Synergy software). The intercepts [drawing 1] and slopes [drawing 2] obtained from these fits were then plotted against either the inhibitor concentration (i) (for inhibition experiments) or the reciprocal of the non-varied substrate concentration (1/s) (for initial velocity experiments). These plots were used to determine the appearance of the overall kinetic equation. Values for kinetic constants were then obtained using the program Scientist (Micromath) by fitting the kinetic data to the relevant over-all equation. Data conforming to a sequential initial velocity pattern were fitted to eqn 2; data conforming to linear competitive inhibition were fitted to eqn. 3; data conforming to hyperbolic mixed inhibition were fitted to eqn. 4. Dose-response curves for data conforming to linear inhibition were fitted to eqn. 5; and for data conforming to hyperbolic inhibition to eqn. 6. [drawing 3] (1) [drawing 4] (2) [drawing 5] (3) [drawing 6] (4) [drawing 7] (5) [drawing 8] (6)

The target in data set [2] is T1, ERK2. As to the kind of experiment: Steady-state kinetics: inhibition of Δ23N-Ets phosphorylation by ERK2. In kind it is biochemical. Conditions: Δ23N-Ets 50 µM, 1 mM MgATP, Lig-D 0–200 µM (eqn 6) or Lig-F 0–400 µM (eqn 5); fitted k0 5.5±0.1 s^−1 (Lig-D), 5.4±0.1 s^−1 (Lig-F); read-out: K50, concentration giving half the maximal change in kobs for phosphorylation of Δ23N-Ets. The procedure:
as §1, with “Data conforming to a sequential initial velocity pattern were fitted to eqn 2; data conforming to linear competitive inhibition were fitted to eqn. 3; data conforming to hyperbolic mixed inhibition were fitted to eqn. 4. Dose-response curves for data conforming to linear inhibition were fitted to eqn. 5; and for data conforming to hyperbolic inhibition to eqn. 6. [drawing 3] (1) [drawing 4] (2) [drawing 5] (3) [drawing 6] (4) [drawing 7] (5) [drawing 8] (6)” left out

Data set [3] deals with T1, ERK2. The experiment in a line: Steady-state parameters for phosphorylation of Ets and N-terminal Ets mutants by ERK2. The data set is classed as biochemical. Conditions: phosphorylation by ERK2 (2 nM), 27°C. The procedure: pET-28a Ets was PCR amplified with a forward primer containing an NdeI site (encoding the initial methionine) followed by the codon encoding Phe-24 (5′-GG GAATTCCATATGTTCCCTTCCCCGGACATG-3′) and an outer reverse primer (5′-GCTAGTTATTGCTCAGCGGTGG-3′) using the following PCR conditions: 94°C for 5 min to denature the complementary strands; 30 cycles of 55°C for 30 sec to anneal the primers, extension for 1 min at 72°C, followed by a denaturation step at 94°C for 45 sec; complementary strands were extended a final 10 min at 72°C. The N-terminal mutant PCR product was digested with NdeI and HindIII and ligated into NdeI-HindIII digested pET-28a. All proteins produced from pET-28a have an N-terminal sequence of […]- prior to the initial methionine encoded by the Ets cDNA giving EtsΔ24-138 an approximate mass of 15, 391 Da whereas Ets 1-138 has a mass of 17, 681 Da (lacking the initial methionine).
pET28a-Ets was modified by overlap extension polymerase chain reaction to construct the single cysteine mutant of Ets (C99A/C106A/C112A) in an Ets S26A background as reported elsewhere. Mutations were produced by a single-step PCR reaction using the following PCR amplification reaction (50 µL) contained Phusion DNA polymerase GC buffer, 200 µM each of the four deoxynucleoside triphosphates, 2 mM MgCl2, 3% DMSO, 80 ng of template DNA (Ets-C31 pET28a vector), 0.5 µM primers forward and reverse, and 1 µL of Phusion DNA polymerase (Finnzymes, USA, Product # F-530-S). […]
zReactions were carried out at 27°C in kinase assay buffer (25 mM HEPES pH 7.4, 100 mM KCl, 2 mM DTT, 40 µg/mL BSA, and 20 mM MgCl2) containing 2 nM ERK2 and varied concentrations of substrates and inhibitors. Rates were measured under conditions where total product formation represented less than 10% of the initial substrate concentrations. The reaction was incubated for 10 min before initiation by addition of enzyme and quantified as described previously. Initial rates were determined by linear least squares fitting to plots of product against time. […]

Data set [4] deals with T1, ERK2. The settings on record: stopped-flow; cited from earlier work. The source says: Since the seminal paper by Wright the role of intrinsically disordered regions of proteins has been a topic of great interest. […] In fact, many docking sites for the DRS of a MAPK are found at the extreme termini of MAPK ligands, such as the upstream activators the MKKs, and may be disordered. For examp ...

Setting [5] is: 25 mM HEPES pH 7.4, 100 mM KCl, 20 mM MgCl2.
Setting [6] is: fit of Lig-D inhibition data (Fig. 5D), eqn 4, Ets 3–59 µM.
[7] abbreviates: fit of Lig-F inhibition data (Fig. 5B), eqn 3, Ets 2–12 µM.

T1 sequence (P63086 whole entry): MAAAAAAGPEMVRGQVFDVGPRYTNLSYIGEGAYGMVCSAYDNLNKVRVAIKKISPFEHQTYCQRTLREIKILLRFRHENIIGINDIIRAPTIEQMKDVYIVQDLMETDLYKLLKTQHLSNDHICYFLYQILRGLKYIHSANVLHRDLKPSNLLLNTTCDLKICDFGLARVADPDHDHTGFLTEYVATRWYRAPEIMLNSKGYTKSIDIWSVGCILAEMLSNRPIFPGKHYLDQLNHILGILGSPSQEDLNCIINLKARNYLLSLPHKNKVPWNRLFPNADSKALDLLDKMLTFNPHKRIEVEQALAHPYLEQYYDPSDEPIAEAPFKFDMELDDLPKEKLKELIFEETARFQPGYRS

`CC(=O)N[C@@H](Cc1ccc(O)cc1)C(=O)N[C@@H](C)C(=O)N1CCC[C@H]1C(=O)N[C@@H](CCCNC(=N)N)C(=O)N[C@@H](C)C(=O)N1CCC[C@H]1C(=O)N[C@@H](C)C(=O)N[C@@H](CCCCN)C(=O)N[C@@H](CC(C)C)C(=O)N[C@@H](C)C(=O)N[C@@H](Cc1ccccc1)C(=O)N[C@@H](CCC(N)=O)C(=O)N[C@@H](Cc1ccccc1)C(=O)N1CCC[C@H]1C(=O)N[C@@H](CO)C(=O)N[C@@H](CCCNC(=N)N)C(N)=O` [Lig-F] (Ac-YAPRAPAKLAFQFPSR-NH2): the IC50 is 33.5 ± 1.9 µM on ERK2 [1] (Ets 6.4 µM, peptide 0–400 µM, 2 nM ERK2, 27°C, HEPES pH 7.4, fit eqn 6 (Lig-D, partial) or eqn 5 (Lig-F, full), fitted k0 8.0±0.2 s^−1 (Lig-D), 10.3±0.2 s^−1 (Lig-F), read-out: K50, concentration giving half the maximal change in kobs for phosphorylation of Ets) and 43 ± 2 µM at ERK2 [2]. Further, at ERK2 [1] (Lig-F 0–200 µM, Ets 2–12 µM, fit eqn 3, read-out: apparent competitive inhibition constant (Ki), full linear competitive inhibition vs Ets), the Ki is 22 ± 1.9 µM.

B1: Ets: His-tagged murine Ets-1 residues 1-138, ERK2 substrate; N-terminus MKAAVDLKPTLTII (protein, UniProt P27577 1-138, looked up, fragment)
chain: MKAAVDLKPTLTIIKTEKVDLELFPSPDMECADVPLLTPSSKEMMSQALKATFSGFTKEQQRLGIPKDPRQWTETHVRDWVMWAVNEFSLKGVDFQKFCMSGAALCALGKECFLELAPDFVGDILWEHLEILQKEDVK
modifications: His tag
As for B1, the “k cat/K m” value with ERK2 [3] (25 mM HEPES pH 7.4) is 1e+06 M⁻¹ s⁻¹. Further, in the data set with ERK2 [3] (setting [5]), the K m came to 17.0 ± 4.0 µM and the k cat was determined as 18.0 ± 2.0 s⁻¹. Also, in the data set with ERK2 [1] (setting [6]), the “apparent Michaelis constant for Ets” value was 6.3 ± 1.7 µM and the “apparent catalytic constant for Ets phosphorylation” value worked out at 14.1 ± 1.3 s⁻¹. In the data set with ERK2 [1] (setting [7]), the “apparent Michaelis constant for Ets” value was determined as 5.6 ± 0.7 µM and the “apparent catalytic constant for Ets phosphorylation” value was determined as 14.9 ± 0.8 s⁻¹.

B2: phospho Ets: Ets phosphorylated by ERK2 (on Thr-38), product of the reaction (protein, UniProt P27577 1-138, looked up, fragment)
chain: B1 chain
modifications: phosphorylated Thr38; His tag
notes: Ets phosphorylated by ERK2 (on Thr-38), product of the reaction
Turning to B2, in the data set with ERK2 [4], the “rate constant for association k on” value was 5e+06 M⁻¹ s⁻¹ and the “rate constant for dissociation k” value is more than 100 s⁻¹.
